{
  "source": "patent US20090197797A1",
  "about": "“USE OF HYALURONIC ACID AS A CARRIER MOLECULE FOR DIFFERENT CLASSES OF THERAPEUTIC ACTIVE AGENTS” (priority 2006, published 2009)",
  "assay": "storage stability of HA-6-MTX checked by repeated NMR spectrum",
  "type": "physicochemical",
  "details": "3-months storage at room temperature; compared with freshly prepared product",
  "procedure": "A solution of HA-OMs:TBA salt from Example 10 (500 mg; 0.73 mmol) in DMSO (15 ml) was treated with a solution of methotrexate (833 mg; 1.83 mmol) in DMSO (10 ml) in the presence of solid cesium carbonate (596 mg; 1.83 mmol). The mixture was stirred under nitrogen at 80° C. for 18 h, whereupon it darkened with formation of solids. It was then cooled to ambient temperature, poured into 100 ml of water (pH 6.5), treated with 15 ml of saturated NaCl solution, and stirred for 1.5 h. Then solids were filtered off and the solution was ultrafiltered, concentrated and freeze-dried to give 131 mg of a yellow-brownish solid. […] HPLC analysis gave 32% w/w, corresponding to 40% mol/mol.",
  "data": [
    {"substance": "6-O-Methotrexylhyaluronic Acid [Example 24]", "values": [
      {"measurement": "NMR spectrum repeated on the same sample after storage (stability of substitution degree)", "value": "the substitution degree is maintained and no by-products are formed"}
    ]}
  ]
}
